Measured values reported in paper PMC3646756.
Values belong to the substance of their own block, whether it stands above or below them.

What was measured:
[1] = target: recombinant mouse FcRn (mouse) (UniProt Q61559)
[2] = target: recombinant human FcRn (human) (UniProt P55899)
[3] = target: hIgG1 Fc variant v3 (M252Y/N434Y) (human); assay: SPR; KD at pH 6.0 (Table 1); set-up told only for pH 7.0: antibody variant captured on Protein L on a CM4 chip, FcRn injected
[4] = target: hIgG1 Fc variant v4 (M252Y/N286E/N434Y) (human); assay: as above
[5] = target: hIgG1 Fc variant v6 (M252Y/V308P/N434Y) (human); assay: as above
[6] = target: hIgG1 Fc variant v5 (M252Y/T307Q/Q311A/N434Y) (human); assay: as above
[7] = target: hIgG1 (anti-hsIL-6R antibody with wild-type human IgG1 constant region) (human); assay: as above
[8] = target: hIgG1 Fc variant v2 (M252W/N434W) (human); assay: as above
[9] = target: hIgG1 Fc variant v3 (M252Y/N434Y) (human); assay: SPR; Biacore T200; antibody variant captured on Protein L immobilised on a CM4 chip, FcRn injected over the flow cell; pH 7.0
[10] = target: hIgG1 Fc variant v6 (M252Y/V308P/N434Y) (human); assay: as above
[11] = target: hIgG1 Fc variant v5 (M252Y/T307Q/Q311A/N434Y) (human); assay: as above
[12] = target: hIgG1 (anti-hsIL-6R antibody with wild-type human IgG1 constant region) (human); assay: as above
[13] = target: hIgG1 Fc variant v2 (M252W/N434W) (human); assay: as above
[14] = target: hIgG1 Fc variant v1 (I332V/N434Y) (human); assay: SPR; KD at pH 6.0 (Table 1); set-up told only for pH 7.0: antibody variant captured on Protein L on a CM4 chip, FcRn injected
[15] = target: hIgG1 Fc variant v1 (I332V/N434Y) (human); assay: SPR; Biacore T200; antibody variant captured on Protein L immobilised on a CM4 chip, FcRn injected over the flow cell; pH 7.0

total hsIL-6R plasma concentration after PH-v1, 1 mg/kg i.v., normal mice steady-state model (reduction below the baseline) [1]: 150 fold
Substance: hIgG1 Fc variant v1 (I332V/N434Y) (antibody)

fold decrease in total hsIL-6R plasma concentration after PH-v4 against NPH-IgG1, 1 mg/kg i.v. with 1 g/kg hIgG, hFcRn-Tgm steady-state model [2]: 50 fold
Substance: hIgG1 Fc variant v4 (M252Y/N286E/N434Y) (antibody)

Kd [3]: 15 nM | Kd [4]: 8 nM | Kd [5]: 3 nM | Kd [6]: 5 nM | Kd [7]: 1380 nM | Kd [8]: 6 nM | Kd [9]: 288 nM | Kd [10]: 35 nM | Kd [11]: 77 nM | Kd [12]: 88000 nM | Kd [13]: 155 nM
Substance: recombinant human FcRn (from UniProt P55899 24-365) (receptor)

Kd [7]: 237 nM | Kd [14]: 3 nM | Kd [12]: 3920 nM | Kd [15]: 52 nM
Substance: recombinant mouse FcRn (from UniProt Q61559 22-365) (receptor)
